{"source": "paper PMC3532415", "key": {"[1]": {"biological_target": "histone H3 1–15 K9me3 peptide (UniProt P68431)", "experiment": "fluorescence polarisation; fluorescence-labelled peptide constant at 40 nM, SUV39H1 (42–100 or 44–106) titrated from low to high micromolar; 20 mM Tris-HCl pH 8.5 or 7.5, 150 mM NaCl, 1 mM DTT, 0.01% Tween-X-100; 10 µL in 384-well plates; fit to a hyperbolic function"}, "[2]": {"biological_target": "histone H3 1–15 K9me2 peptide (UniProt P68431)", "experiment": "fluorescence polarisation; fluorescence-labelled peptide constant at 40 nM, SUV39H1 (42–100 or 44–106) titrated from low to high micromolar; 20 mM Tris-HCl pH 8.5 or 7.5, 150 mM NaCl, 1 mM DTT, 0.01% Tween-X-100; 10 µL in 384-well plates; fit to a hyperbolic function"}}, "data": [{"substance": "human SUV39H1 chromodomain (aa 42–100), complete chromodomain (from UniProt O43463 42-100) (domain or fragment)", "values": [{"measurement": "Kd", "setting": "[1]", "value": 20, "unit": "µM"}, {"measurement": "Kd", "setting": "[2]", "value": 29, "unit": "µM"}]}]}
